US20070092933A1 (AVIDIS, published 2007)

B1: db-C4bp fusion protein (downstream box peptide fused N-terminal to the 57 amino acid core domain of the human C4bp alpha chain) (other)
chain: MASMNHKGSETPEGCEQVLTGKRLMQCLPNPEDVKMALEVYKLSLEIEQLELQRDSARQSTLDKEL
notes: Expressed in the cytosol of E. coli C41(DE3); Predicted monomer size 7491.5 Da; Recovered as an oligomer of about 60-67 kDa by gel filtration, with disulphide bonds between the monomers; also called native db-C4bp; product of plasmid pAVD 77
B2: DsbA (soluble DsbA of E. coli) (protein)
chain: AQYEDGKQYTTLEKPVAGAPQVLEFFSFFCPHCYQFEEVLHISDNVKKKLPEGVKMTKYHVNFMGGDLGKDLTQAWAVAMALGVEDKVTVPLFEGVQKTQTIRSASDIRDVFINAGIKGEEYDAAWNSFVVKSLVAQQEKAAADVQLRGVPAMFVNGKYQLNPQGMDTSNMDVFVQQYADTVKYLSEKK
B3: DsbA-C4bp fusion protein (human C4bp core fused to the C-terminus of the E. coli DsbA protein) (protein)
chain: AQYEDGKQYTTLEKPVAGAPQVLEFFSFFCPHCYQFEEVLHISDNVKKKLPEGVKMTKYHVNFMGGDLGKDLTQAWAVAMALGVEDKVTVPLFEGVQKTQTIRSASDIRDVFINAGIKGEEYDAAWNSFVVKSLVAQQEKAAADVQLRGVPAMFVNGKYQLNPQGMDTSNMDVFVQQYADTVKYLSEKKETPEGCEQVLTGKRLMQCLPNPEDVKMALEVYKLSLEIEQLELQRDSARQSTLDKEL

Columns and labels:
[1] = target: the molecule itself; assay: gel filtration (S75 26/60), self-association of monomers
[2] = target: insulin

Row | Protein | binding result [1] | increase of turbidity at 650 nm (insulin disulphide reduction assay) [2]
1 | B1 | binds | 
2 | B2 |  | the activity is directly comparable to the activity of soluble DsbA
3 | B3 |  | the DsbA present in the DsbA-C4bp fusion protein is still active, and the activity is directly comparable to the activity of soluble DsbA
